Consider 40 sequences from the supplement of paper PMC7877785.

± gives the uncertainty stated by the source.

The data set is described as follows: self-splicing fitness, log relative to wild type (ln ratio); higher = more splicing; Tetrahymena group I intron in knt gene, E. coli kanamycin selection, DiMSum; sequences stand for … in CUCUCU…GGAGGGAAAAGUUAUCAGGCAUGCACCUGGUAGCUAGUCUUUAAACCAAUAGAUUGCAUCGGUUUAAAAGGCAAGACCGUCAAAUUGCGGGAAAGGGGUCAACAGCCGUUCAGUACCAAGUCUCAGGGGAAACUUUGAGAUGGCCUUGCAAAGGGUAUGGUAAUAAGCUGACGGACAUGGUCCUAACCACGCAGCCAAGUCCUAAGUCAACAGAUCUUCUGUUGAUAUGGAUGCAGUUCACAGACUAAAUGUCGGUCGGGGAAGAUGUAUUCUUCUCAUAAGAUAUAGUCGGACCUCUCCUUAAUGGGAGCUAGCGGAUGAAGUGAUGCAACACUGGAGCCGCUGGGAACUAAUUUGUAUGCGAAAGUAUAUUGAUUAGUUUUGGAGUACUCGUGGUCG
An outline of the steps:
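The eight P1ex-region nucleotides of an intron in the knt kanamycin-resistance gene on pET-22b(+) were all randomised and the library put into E. coli BL21(DE3). Six replicate transformations were grown overnight at 37°C or 30°C on LB agar with or without 25 μg/mL kanamycin, together with 100 μg/mL carbenicillin, 50 μM IPTG and 0.2% rhamnose. Colonies were pooled and amplicon-sequenced on an Illumina HiSeq 2500. Fitness from DiMSum is the error-weighted combination of wild-type-normalised replicate fold changes, kanamycin over none.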

For UGACAGCAAUAUUACGCCUA, the “self-splicing fitness (ln)” value runs as follows: (30 °C) 0.107 ± 0.069; (37 °C) 0.414 ± 0.086.
Regarding AUUUAGCAAUAUUACGUACU, the “self-splicing fitness (ln)” value was -0.21 ± 0.11 (30 °C) and -0.13 ± 0.15 (37 °C).
As to CUACAGCAAUAUUACGCGAA, the “self-splicing fitness (ln)” value is -2.83 ± 0.18 (30 °C) and -3.89 ± 0.31 (37 °C).
For CGAAAGCAAUAUUACGAUGA, in that order: -0.9 ± 0.08 and -0.508 ± 0.088.
Taken in the same sequence, the figures for AAACAGCAAUAUUACGGCGG were -2.4 ± 0.088 and -1.35 ± 0.092.
For GUCCAGCAAUAUUACGAUUU, in that order: -0.323 ± 0.064 and 0.653 ± 0.067.
With UGUUAGCAAUAUUACGUGAU, the “self-splicing fitness (ln)” value runs as follows: (30 °C) -1.77 ± 0.14; (37 °C) -1.96 ± 0.25.
As to UGGGAGCAAUAUUACGAUUU, the “self-splicing fitness (ln)” value (30 °C) is -3.39 ± 0.3.
For GGAAAGCAAUAUUACGCCUU, the “self-splicing fitness (ln)” value (30 °C) was -1.07 ± 0.29 and the “self-splicing fitness (ln)” value (37 °C) is -1.29 ± 0.38.
Taken in the same sequence, the figures for UGAUAGCAAUAUUACGACGU were -2.71 ± 0.24 and -1.17 ± 0.37.
For UAAUAGCAAUAUUACGUUGU, in that order: -3.53 ± 0.18 and -1.98 ± 0.19.
For GACAAGCAAUAUUACGGCGC, in that order: -0.29 ± 0.098 and 0.11 ± 0.12.
For CGGAAGCAAUAUUACGCUUC, the “self-splicing fitness (ln)” value (30 °C) is -3.81 ± 0.35.
As for UUACAGCAAUAUUACGUUUC, the “self-splicing fitness (ln)” value is -3.05 ± 0.17 (30 °C) and -2.53 ± 0.25 (37 °C).
Turning to GAUGAGCAAUAUUACGGAGG, the “self-splicing fitness (ln)” value is, setting by setting: (30 °C) -3.47 ± 0.26; (37 °C) -3.23 ± 0.35.
For CCCCAGCAAUAUUACGAAAC, in that order: -3.12 ± 0.2 and -1.89 ± 0.27.
Taken in the same sequence, the figures for GCAUAGCAAUAUUACGAGAG were -2.71 ± 0.27 and -2.35 ± 0.21.
For UAAUAGCAAUAUUACGACUU, the “self-splicing fitness (ln)” value is -0.84 ± 0.1 (30 °C) and -0.376 ± 0.094 (37 °C).
For GUGAAGCAAUAUUACGUUCU, in that order: -0.0481 ± 0.072 and -0.218 ± 0.086.
Regarding ACCAAGCAAUAUUACGAUCC, the “self-splicing fitness (ln)” value (30 °C) is -1.83 ± 0.093 and the “self-splicing fitness (ln)” value (37 °C) was -0.778 ± 0.14.
Take GGUGAGCAAUAUUACGCUUC: the “self-splicing fitness (ln)” value (37 °C) is -2.51 ± 0.39.
Turning to GCGCAGCAAUAUUACGUGCC, the “self-splicing fitness (ln)” value is, setting by setting: (30 °C) -3.26 ± 0.18; (37 °C) -2.75 ± 0.29.
Taken in the same sequence, the figures for GAUAAGCAAUAUUACGUCGG were -3.81 ± 0.35 and -3.35 ± 0.28.
Taken in the same sequence, the figures for CCGUAGCAAUAUUACGCUAG were -3.02 ± 0.28 and -2.14 ± 0.25.
As for UGUUAGCAAUAUUACGCGCU, the “self-splicing fitness (ln)” value reads like this: (30 °C) -1.36 ± 0.13; (37 °C) -0.409 ± 0.12.
As for CAGGAGCAAUAUUACGUAGC, the “self-splicing fitness (ln)” value (37 °C) is -2.7 ± 0.36.
For GUAGAGCAAUAUUACGGCCA, the “self-splicing fitness (ln)” value runs as follows: (30 °C) -0.643 ± 0.098; (37 °C) -0.417 ± 0.17.
For ACCAAGCAAUAUUACGUGCC, in that order: -0.735 ± 0.082 and -0.801 ± 0.13.
Taken in the same sequence, the figures for GUUCAGCAAUAUUACGCGCA were -1.04 ± 0.2 and 0.567 ± 0.21.
Consider UCCGAGCAAUAUUACGAACA, for which the “self-splicing fitness (ln)” value (30 °C) was -3.11 ± 0.47.
GCGGAGCAAUAUUACGGCAA: where the note is “37 °C”, the “self-splicing fitness (ln)” value was -1.74 ± 0.18.
On to GCUUAGCAAUAUUACGAAAG, for which the “self-splicing fitness (ln)” value is, setting by setting: (30 °C) -1.52 ± 0.13; (37 °C) -0.485 ± 0.19.
Consider GUCGAGCAAUAUUACGUGCC, for which, for the setting “30 °C”, the “self-splicing fitness (ln)” value was -2.63 ± 0.29.
With GUCUAGCAAUAUUACGAUGU, the “self-splicing fitness (ln)” value runs as follows: (30 °C) -1.11 ± 0.074; (37 °C) 0.257 ± 0.086.
Taken in the same sequence, the figures for UAGAAGCAAUAUUACGGGCG were 0.0568 ± 0.11 and -0.38 ± 0.13.
As for AUAUAGCAAUAUUACGCGAG, the “self-splicing fitness (ln)” value reads like this: (30 °C) -2.35 ± 0.13; (37 °C) -1.09 ± 0.13.
Taken in the same sequence, the figures for UUAAAGCAAUAUUACGGUAG were -0.312 ± 0.076 and 0.29 ± 0.11.
With AUACAGCAAUAUUACGAUAC, the “self-splicing fitness (ln)” value is -2.01 ± 0.075 (30 °C) and -1.08 ± 0.088 (37 °C).
Take AAAAAGCAAUAUUACGCGGG: the “self-splicing fitness (ln)” value runs as follows: (30 °C) -2.76 ± 0.16; (37 °C) -1.93 ± 0.15.
For ACACAGCAAUAUUACGAAUA, in that order: -2.21 ± 0.13 and -1.6 ± 0.11.
